In the DeepSol protein solubility set:

Assay: soluble on expression in E. coli; label from the status in PepcDB or PDB records

Sequence	soluble on expression in E. coli
MSNYSVSLVGPAPWGFRLQGGKDFNMPLTISSLKDGGKAAQANVRIGDVVLSIDGINAQGMTHLEAQNKIKGCTGSLNMTLQRASAAPKPEPVPVQKGEPKEVVKPVPITSPAVSKVTSTNNMAYNKAPRPFGSVSSPKVTSIPSPSSAFTPAHATTSSHASPSPVAAVTPPLFAASGLHANANLSADQSPSALSAGKTAVNVPRQPTVTSVCSETSQELAEGQRRGSQGDSKQQNGPPRKHIVERYTEFYHVPTHSDASKKRLIEDTEDWRPRTGTTQSRSFRILAQITGTEHLKESEADNTKKANNSQEPSPQLASSVASTRSMPESLDSPTSGRPGVTSLTTAAAFKPVGSTGVIKSPSWQRPNQGVPSTGRISNSAAYSGSVAPANSALGQTQPSDQDTLVQRAEHIPAGKRTPMCAHCNQVIRGPFLVALGKSWHPEEFNCAHCKNTMAYIGFVEEKGALYCELCYEKFFAPECGRCQRKILGEVINALKQTWHVSCFVCVACGKPIRNNVFHLEDGEPYCETDYYALFGTICHGCEFPIEAGDMFLEALGYTWHDTCFVCSVCCESLEGQTFFSKKDKPLCKKHAHSVNF	soluble
MSLSGCASPASASGASALSVWDLFQGGDGMLMDDMIEAVSKGAGGAEGFEIDRTILDWGPSYYTKLAMSAAGGRASDVAAMHLSRLAGYAPGGLVDAFDLDLLAEYGVTEKDFTPAVWARTRHEGTVYAIPLDVHPFIVFYDKKAAERAGLLDAAGELAPMGSPEALLEAGKALAEATGESGILFGHVTDTAQNWRLFAGLYAQTGAAFDLPDGGPPEIDVDAAVRVVTLMTRLFDGKTNPSNLDYNGALAAFSSGRGGMAMLGEWELPTLKKSGMELGAAPFPQVFEKPAVYTDSHSFVLPHQDSPDPARRREAHRYVAQILAQSLTWASAGHIPAYQPVLAEPEYAALDPQSSYADAAEVAVLDPPNWFAGAGSNFQNRMCQPLQSALLGDTTPEKAVRQMVREADTLLRQPNPVAEGHHHHHH	soluble
MGHHHHHHSHMVCSPVTVRIAPPDRRFSRSAIPEQIISSTLSSPSSNAPDPCAKETVLSALKEKKKKRTVEEEDQIFLDGQENKRSCLVDGLTDASSAFKVPRPGPDTLQFTVDVFHFANDSRNMIYITCHLKVTLAEQDPDELNKACSFSKPSNSWFPVEGPADICQCCNKGDCGTPSHSRRQPRVVSQWSTSASRNRRHVTEEADVTVGATDLPGQEW	not soluble
MKTENAKTNQTLVENSLNTQLSNWFLLYSKLHRFHWYVKGPHFFTLHEKFEELYDHAAETVDTIAERLLAIGGQPVATVKEYTEHASITDGGNETSASEMVQALVNDYKQISSESKFVIGLAEENQDNATADLFVGLIEEVEKQVWMLSSYLG	soluble
MVRTYSPAFREAAVRMMISHREEYKCSRWAAAVAISEKIGASPNSIYAWFKKSTFETIESDDFDLAYYKERIERLESEIQRLQKTIKFLRTTIIILSNSLHFG	not soluble
MVRPEDFNSLELDNSLTDGETVHEMMAHKAGLTYNDFNILPGFINFGVHDVSLETNITKDLKIKAPLVSSPMDTVTESGMAIVMALYGGIGIIHGNFPKPEDQAAEVLKVKRFKQGYVMQPHCLSRDSTAFDMIQIKKKYGYTGAPVTEDGRVGSKLIGMVTSRDFDFITMDVAGQKGTPISDTNDVTPTTPITRIMVSVDQLHLGHINDAPELSQKKLKEHRLGKLPIVNDNGELCALLCRSDLLKARDYPMASYDSKGQLLCGAAVNTRGESQYTVDRVVEAGVDVLIIDSSNGSSTYQISMLRYIKEKHPHVQVIAGNVVTRAQAKLLIDQGADGLRIGMGSGSICITQDVMAVGRAQGTAVYDVARYANQRGIPIVADGGIRDVGYITKAISLGASAVMMGGLLAATTEAPGEYFWGPGGVRVKKYRGMGSLDAMEAHASSQDRYFTAHVFFSILSYF	not soluble
MNPAALSAFTRSLLFNRCSTSSFCNSITRNAVAFFATAAATPKINVNVGTIGHIDHGKTTLTSAITRVQAKKGFAKHIKFDEIDKGKEEKKRGITINVAHIGYESPLRRYSHTDCPGHSDFIKNMICGTSQMDVAVLVIAATDGVMEQTKEHLILAKQVGVKNMAIFINKADLVEEDDLDLVEMEARELLSLHGFNGDATPVIRGSALSALEGQDISCIERLIDALDSLPEPDRNEKDTFVMPIASKTAITGRGTVIVGTLERGVLKKGDKVEIKGDGQTLQTTASDIQVFGKSVKEVRAGDHCGVLCRGVKGDTVKRGMWAGHPGAVTITNRVKVELYLLSEAENGRKIGIRTGFTDKMYCSTWDQVGRFDMSNELLMPGEHTSATVLLMKDMPLRKGMPFTLREGSSKTTIARGIISDLEDHVAVEKHNLKKSAEKM	not soluble
MGSDKIHHHHHHMTRYKLSAEVSFSKPSEIMGRLYILPYRDNAQKVLHFNIDHPSFCKVSINQDRFRNEHLDFKCNPSDDFSIIISYEVEVNSFSKSENEEEVFLSSSKYVNVDKFKMINVRYFSFDDLIDEVISMVRDSIRYDKNNKSVKSAFGSLIMGSGVCVNYSHVAIGILRALGIPARYVIGLIPFSTKEAHAWIEVKIGDVWFPVDPTNGIKGMQYLKWAIGRDDNDVRSKIWYSKPVSFDFSFDWNFR	not soluble
MGSDKIHHHHHHMHFVITGSLGHIGKPLAIQLSKEGHAVTVVSSNTERIKEIESIGAKAAIGSVEDPGFLTETFRGADAVFTMVPPNMNAADWKAWIAGIGKNYVAAIKESGVKHVVNLSSIGAHMVDKCGPVSGLSQVELAMDEMKGVNVHHLRAGYFYTNFLNSIGQIKNQGIITGNYMPDLKMVLVHPADIADIAARALKDESYLGRGFSYIASDEKTPAEIVTILGKATGRMDLKWVERTDKEEYDDLIAIGLPEEIAKNYTEMGAALRSGDMNADYFRNRPVMAGWRTFDSFMPEFIATYNA	not soluble
MYFLTSSLPTTLMNVALTSWARAFAINVFPQPGGPYKRTPFGGSIPTSSKSSGCLRGSSMASLNSCSCFFKPPISLYVTFGLSMTSNPSTVGSLDVGSISTTAIVLLEHHHHHH	not soluble
MGHHHHHHSHGSCEVLRLLDLGASPSYRRWIWQHLELIDGRPLKTHLSEYSPMERFKEFQIKSYPLQDFSSLKLPHLKKAWGLQGTSFSRKIRTSGDTLPKMLGPKIQSRPAQSIKCAMINIKPGELPKEAAVGAYVKVHTVEQGEILGLHQAFLPEGECDTRPLILMSLGNELIRIRKEIFYELIDNDDEMIKKLLKLNIAFPSDEDMCQKFLQQNSWNIFRKDLLQLLVEPCQSQLFTPNRPKKREIYNPKSVVLDLCSINKTTKPRYPIFMAPQKYLPPLRIVQAIKAPRYKIRELLA	not soluble
MALTEQKRVRLEKLSDENGIISALAFDQRGALKRLMVKHQTEEPTVAQMEELKVLVADELTKYASSMLLDPEYGLPATKALDEKAGLLLAYEKTGYDTTSTKRLPDCLDVWSAKRIKEEGADAVKFLLYYDVDSSDELNQEKQAYIERIGSECVAEDIPFFLEILAYDEKIADAGSVEYAKVKPHKVIGAMKVFSDPRFNIDVLKVEVPVNIKYVEGFAEGEVVYTREEAAAFFKAQDEATNLPYIYLSAGVSAKLFQDTLVFAHESGANFNGVLCGRATWAGSVEAYIKDGEAAARECVRTTGFENIDELNKVLQRTATSWKERV	soluble
MFPSFITHIQSPNSHHHYSSPSFPFSSDFLESFDESFLINQFLLQQQDVAANVVESPWKFCKKLELKKKNEKCVDGSTSQEVQWRRTVKKRDRHSKICTAQGPRDRRMRLSLQIARKFFDLQDMLGFDKASKTIEWLFSKSKTSIKQLKERVAASEGGGKDEHLQVDEKEKDETLKLRVSKRRTKTMESSFKTKESRERARKRARERTMAKMKMRLFETSETISDPHQETREIKITNGVQLLEKENKEQEWSNTNDVHMVEYQMDSVSIIEKFLGLTSDSSSSSIFGDSEECYTSLSSVRGTISAAGNSNVLTKNPN	not soluble
MVMSSEGGEDRWVFGYGSLMWRPGFPFIDRRTAVLHGRRRAFCIYSVHHRGTYERPGLVLGLAPGGSVRGMAYRVAAAEWEGVYAYLREREQPTETYFETWREVKVDGGDKAPALVFLSDMKHSQWAGDLTLEQQAALIAGAVGLSGPNIDYLRDLVMHLHEDGVRDHAMEKLLKMVEAREAALEHHHHHH	not soluble
MAVYTDITEDELRNFLTQYDVGSLTSYKGIAEGVENSNFLLHTTKDPLILTLYEKRVEKNDLPFFLGLMQHLAAKGLSCPLPLPRKDGELLGELSGRPAALISFLEGMWLRKPEAKHCREVGKALAAMHLASEGFEIKRPNALSVDGWKVLWDKSEERADEVEKGLREEIRPEIDYLAAHWPKDLPAGVIHADLFQDNVFFLGDELSGLIDFYFACNDLLAYDVSICLNAWCFEKDGAYNVTKGKALLEGYQSVRPLSEAELEALPLLSRGSALRFFLTRLYDWLTTPAGALVVKKDPLEYLRKLRFHRTIANVAEYGLAGE	soluble
MAHHHHHHMRAAPTRLAPSTVASLGRSHCGSQAYHLDAAGAAGWRRRRRLTGVSMTTTHTVAPAVSALPFSLSTARRTYYWPYPENLVPEGATTSPFQSSPVPSVRERIIREYALGPLFGSRTPCCVLGFAGTARDVAACKRDVRRWVARALGKSEADVELGALVQAKEMLLHRSGTDESPRLGDGPGSRPDAEQRRVTRYARLPVQARTLLEVYLPGEEHGEVDAAADADATILAHGYFLQEQLHRHMTTTASSGSDPTGRRDSEDCQPEEPARKMQSHCQGCSEPNDEADVKSSVAALHDVCGVIYCEVPVLDESDFAFDQLCGKEVDDETTERVTDRWTRRAMQQQPQL	soluble
MTTAHRPTFHPARGGTARGEGDLSKLSNQYSSKDMPSHTKMKYRQTGQETEADLRKKDLRRELEDKERNAIREKRARDSASSSSSHSKRQRMDQIAAESAASVDADEAVDELNSSDDDDSDEDDTAALMAELEKIKKERAEEKAARDEEIKEKEEKQRMENILAGNPLLNDTPAGSSTSGGDFTVKRRWDDDVVFKNCAKGVEERKKEVTFINDAIRSEFHKKFMDKYIK	soluble
GAMGSMATRIAILGAGPSGMAQLRAFQSAQEKGAEIPELVCFEKQADWGGQWNYTWRTGLDENGEPVHSSMYRYLWSNGPKECLEFADYTFDEHFGKPIASYPPREVLWDYIKGRVEKAGVRKYIRFNTAVRHVEFNEDSQTFTVTVQDHTTDTIYSAAFDYVVCCTGHFSTPYVPEFEGFEKFGGRILHAHDFRDALEFKDKTVLLVGSSYSAEDIGSQCYKYGAKKLISCYRTAPMGYKWPENWDERPNLVRVDTENAYFADGSSEKVDAIILCTGYIHHFPFLNDDLRLVTNNRLWPLNLYKGVVWEDNPKFFYIGMQDQWYSFNMFDAQAWYARDVIMGRLPLPSKEEMKADSMAWREKELTLVTAEEMYTYQGDYIQNLIDMTDYPSFDIPATNKTFLEWKHHKKENIMTFRDHSYRSLMTGTMAPKHHTPWIDALDDSLEAYLSDKSEIPVAKEA	soluble
MGSDKIHHHHHHVDKFLYIAMSGAKQNLNSLSIRANNLANANTDGFKADLEQSRSMQAFGEGLPTRVFAMTENPQASFRHGPINSTARDLDVAVKGDGWIAVEDADGNEAYTRAGSLKFDETGLLTNSQGRPVMGDAGPIVLPLPIDKVEIAQDGTITVRPQGATAEVVEEVARIKLVNPGNQNLMRGDDGLFRMMNGTTAPQDETVALESRAVEGSNVNPVEEMVALIDIQRQFELQVKMMKTAEENDKASAQLVRIG	not soluble
MSLLRPLSKTDCPMLQEINAKALGYLVSLDLLERQYERLIEDCHHYFLAYADKDTNQLLGYVHAERYETLYASDGLNLLGLAVLPAYQRRGIGSALLRALESQARQEGIAFIRLNSASHRKEAHAFYRNLDYADDKTQLRFIKNLQGDDNDFEGHHHHHH	soluble
